Measurements reported in US20250152742A1, “COMPOSITIONS AND METHODS FOR NEUROLOGICAL DISEASES” (Trames Bio, Inc., priority 2022, published 2025).
Numbering of substitutions follows the chain as printed. Numbers in names are those of the source.

Tested on: engineered chimeric receptor SEQ ID NO: 33 and its mutants (human α7-nAChR ligand binding domain / human GlyRα1 ion pore domain) in Lenti-X 293T cells
Test: YFP fluorescence quenching anion reporter plate reader assay (percent quench, EC50)
Type: cell-based
Conditions: for YFP fluorescence quenching using CNL001 (percent quench): receptor named in row; for YFP fluorescence quenching using Facinicline, 30 nM fac: ligand Facinicline 30 nM; for YFP fluorescence quenching using Facinicline, 300 nM fac: ligand Facinicline 300 nM; for YFP fluorescence quenching using Facinicline, 30 uM fac: ligand Facinicline 30 uM; for YFP fluorescence quenching using TC-6987, 1 uM tc6987: ligand TC-6987 1 uM; for YFP fluorescence quenching using TC-6987, 10 uM tc6987: ligand TC-6987 10 uM; for YFP fluorescence quenching using TC-6987, 500 uM tc6987: ligand TC-6987 500 uM; for YFP fluorescence quenching using Varenicline, 3 nM var: ligand Varenicline 3 nM; for YFP fluorescence quenching using Varenicline, 30 nM var: ligand Varenicline 30 nM; for YFP fluorescence quenching using Varenicline, 300 nM var: ligand Varenicline 300 nM; for YFP fluorescence quenching using Varenicline, 500 nM var: ligand Varenicline 500 nM; for YFP fluorescence quenching using Varenicline, 1 uM var: ligand Varenicline 1 uM
Summary of the method: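 Lenti-X 293T cells co-expressing an anion-quenchable YFP were transiently transfected with receptor DNA, then ligand was added in NaI-substituted buffer (pH 7.2) after 30 min at 37 °C. Fluorescence was read about 2 min; percent quench = mean of last 10 s over 15 s pre-ligand baseline.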

[1] = 1 nM CNL001, first column so headed
[2] = 1 nM CNL001, second column so headed
[3] = 3 nM brd (TC-5619/Bradanicline)
[4] = 10 nM CNL001, first column so headed
[5] = 10 nM CNL001, second column so headed
[6] = 30 nM brd (TC-5619/Bradanicline)
[7] = 50 nM CNL001, first column so headed
[8] = 50 nM CNL001, second column so headed
[9] = 100 nM CNL001, first column so headed
[10] = 100 nM CNL001, second column so headed
[11] = 300 nM brd (TC-5619/Bradanicline)
[12] = 1 uM CNL001, first column so headed
[13] = 1 uM CNL001, second column so headed

B1: CODA952: engineered receptor: Y140I in SEQ ID NO: 33 (protein)
chain: MRCSPGGVWLALAASLLHVSLQGEFQRKLYKELVKNYNPLERPVANDSQPLTVYFSLSLLQIMDVDEKNQVLTTNIWLQMSWTDHYLQWNVSEYPGVKTVRFPDGQIWKPDILLYNSADERFDATFHTNVLVNSSGHCQILPPGIFKSSCPMDLKNFPMDVQTCKLKFGSWSYGGWSLDLQMQEADISGYIPNGEWDLVGIPGKRSERFYECCKEPYPDVTFTVTMRRRMGYYLIQMYIPSLLIVILSWISFWINMDAAPARVGLGITTVLTMTTQSSGSRASLPKVSYVKAIDIWMAVCLLFVFSALLEYAAVNFVSRQHKELLRFRRKRRHHKSPMLNLFQEDEAGEGRFNFSAYGMGPACLQAKDGISVKGANNSNTTNPPPAPSKSPEEMRKLFIQRAKKIDKISRIGFPMAFLIFNMFYWIIYKIVRREDVHNQ
modifications: synthetic sequence of chimeric LGIC
YFP fluorescence quenching using CNL001 (percent quench) [1]: 0.368% | YFP fluorescence quenching using CNL001 (percent quench) [2]: −1.976% | YFP fluorescence quenching using TC-5619/Bradanicline (percent quench) [3]: −2.45% | YFP fluorescence quenching using CNL001 (percent quench) [4]: −3.923% | YFP fluorescence quenching using CNL001 (percent quench) [5]: 4.348% | YFP fluorescence quenching using TC-6683 (percent quench) (30 nM TC-6683): −27.7% | YFP fluorescence quenching using TC-5619/Bradanicline (percent quench) [6]: 66.97% | YFP fluorescence quenching using CNL001 (percent quench) [7]: 74.107% | YFP fluorescence quenching using CNL001 (percent quench) [8]: 75.866% | YFP fluorescence quenching using ABT-126 (percent quench) (50 nM abt (ABT-126)): −12.34% | YFP fluorescence quenching using CNL001 (percent quench) [9]: 80.323% | YFP fluorescence quenching using CNL001 (percent quench) [10]: 81.996% | YFP fluorescence quenching (percent quench) (100 nM CNL002): 32.58% | YFP fluorescence quenching using ABT-126 (percent quench) (100 nM abt (ABT-126)): −11.57% | YFP fluorescence quenching using AZD-0328 (percent quench) (100 nM azd0328): −12.96% | YFP fluorescence quenching using TC-6683 (percent quench) (300 nM TC-6683): −26.87% | YFP fluorescence quenching using ABT-126 (percent quench) (300 nM abt (ABT-126)): −5.21% | YFP fluorescence quenching using AZD-0328 (percent quench) (300 nM azd0328): −13.21% | YFP fluorescence quenching using TC-5619/Bradanicline (percent quench) [11]: 78.48% | YFP fluorescence quenching using CNL001 (percent quench) [12]: 83.489% | YFP fluorescence quenching using CNL001 (percent quench) [13]: 82.208% | YFP fluorescence quenching (percent quench) (1 uM CNL002): 69.08% | YFP fluorescence quenching using ABT-126 (percent quench) (1 uM abt (ABT-126)): 3.93% | YFP fluorescence quenching using TC-6683 (percent quench) (3 uM TC-6683): −31.2% | YFP fluorescence quenching (percent quench) (10 uM ach (acetylcholine)): −1.97% | YFP fluorescence quenching (percent quench) (30 uM CNL002): 73.28% | YFP fluorescence quenching using TC-6683 (percent quench) (30 uM TC-6683): −33.12% | YFP fluorescence quenching using AZD-0328 (percent quench) (30 uM azd0328): 68.5% | YFP fluorescence quenching using TC-6683 (percent quench) (100 uM TC-6683): −24.67% | YFP fluorescence quenching (percent quench) (100 uM ach (acetylcholine)): 2.79% | YFP fluorescence quenching (percent quench) (1 mM ach (acetylcholine)): 58.81% | YFP fluorescence quenching (percent quench) (3 mM ach (acetylcholine)): 66.9% | YFP fluorescence quenching using Facinicline, 30 nM fac: −8.83 | YFP fluorescence quenching using Facinicline, 300 nM fac: 51.6 | YFP fluorescence quenching using Facinicline, 30 uM fac: 71.01 | YFP fluorescence quenching using TC-6987, 1 uM tc6987: 6.03 | YFP fluorescence quenching using TC-6987, 10 uM tc6987: 2.25 | YFP fluorescence quenching using TC-6987, 500 uM tc6987: −0.24 | YFP fluorescence quenching using Varenicline, 3 nM var (first column): −22.522 | YFP fluorescence quenching using Varenicline, 3 nM var (second column): −18.173 | YFP fluorescence quenching using Varenicline, 30 nM var (first column): −15.306 | YFP fluorescence quenching using Varenicline, 30 nM var (second column): −12.832 | YFP fluorescence quenching using Varenicline, 300 nM var (first column): −14.671 | YFP fluorescence quenching using Varenicline, 300 nM var (second column): −17.016 | YFP fluorescence quenching using Varenicline, 500 nM var (first column): −16.713 | YFP fluorescence quenching using Varenicline, 500 nM var (second column): −18.893 | YFP fluorescence quenching using Varenicline, 1 uM var (first column): −15.847 | YFP fluorescence quenching using Varenicline, 1 uM var (second column): −16.236

B2: CODA965: engineered receptor: Y140C in SEQ ID NO: 33 (protein)
chain: B1 chain with I140C
modifications: synthetic sequence of chimeric LGIC
YFP fluorescence quenching using CNL001 (percent quench) [1]: −12.765% | YFP fluorescence quenching using CNL001 (percent quench) [2]: −12.608% | YFP fluorescence quenching using TC-5619/Bradanicline (percent quench) [3]: −18.49% | YFP fluorescence quenching using CNL001 (percent quench) [4]: 68.134% | YFP fluorescence quenching using CNL001 (percent quench) [5]: 71.394% | YFP fluorescence quenching using TC-6683 (percent quench) (30 nM TC-6683): −8.21% | YFP fluorescence quenching using TC-5619/Bradanicline (percent quench) [6]: 22.66% | YFP fluorescence quenching using CNL001 (percent quench) [7]: 80.298% | YFP fluorescence quenching using CNL001 (percent quench) [8]: 82.159% | YFP fluorescence quenching using ABT-126 (percent quench) (50 nM abt (ABT-126)): −10.75% | YFP fluorescence quenching using CNL001 (percent quench) [9]: 82.404% | YFP fluorescence quenching using CNL001 (percent quench) [10]: 82.14% | YFP fluorescence quenching (percent quench) (100 nM CNL002): 43.24% | YFP fluorescence quenching using ABT-126 (percent quench) (100 nM abt (ABT-126)): −4.11% | YFP fluorescence quenching using AZD-0328 (percent quench) (100 nM azd0328): −16.69% | YFP fluorescence quenching using TC-6683 (percent quench) (300 nM TC-6683): −16.37% | YFP fluorescence quenching using ABT-126 (percent quench) (300 nM abt (ABT-126)): 18.93% | YFP fluorescence quenching using AZD-0328 (percent quench) (300 nM azd0328): 1.3% | YFP fluorescence quenching using TC-5619/Bradanicline (percent quench) [11]: 38.02% | YFP fluorescence quenching using CNL001 (percent quench) [12]: 82.34% | YFP fluorescence quenching using CNL001 (percent quench) [13]: 80.649% | YFP fluorescence quenching (percent quench) (1 uM CNL002): 42.72% | YFP fluorescence quenching using ABT-126 (percent quench) (1 uM abt (ABT-126)): 52.64% | YFP fluorescence quenching using TC-6683 (percent quench) (3 uM TC-6683): −19.48% | YFP fluorescence quenching (percent quench) (10 uM ach (acetylcholine)): −21.71% | YFP fluorescence quenching (percent quench) (30 uM CNL002): 51.43% | YFP fluorescence quenching using TC-6683 (percent quench) (30 uM TC-6683): −24.32% | YFP fluorescence quenching using AZD-0328 (percent quench) (30 uM azd0328): 21.78% | YFP fluorescence quenching using TC-6683 (percent quench) (100 uM TC-6683): −24.99% | YFP fluorescence quenching (percent quench) (100 uM ach (acetylcholine)): 3.49% | YFP fluorescence quenching (percent quench) (1 mM ach (acetylcholine)): 63.34% | YFP fluorescence quenching (percent quench) (3 mM ach (acetylcholine)): 51.92% | YFP fluorescence quenching using Facinicline, 30 nM fac: −12.29 | YFP fluorescence quenching using Facinicline, 300 nM fac: 20.11 | YFP fluorescence quenching using Facinicline, 30 uM fac: 37.62 | YFP fluorescence quenching using TC-6987, 1 uM tc6987: 2.73 | YFP fluorescence quenching using TC-6987, 10 uM tc6987: 30.37 | YFP fluorescence quenching using TC-6987, 500 uM tc6987: 33.07 | YFP fluorescence quenching using Varenicline, 3 nM var (first column): −17.716 | YFP fluorescence quenching using Varenicline, 3 nM var (second column): −23.019 | YFP fluorescence quenching using Varenicline, 30 nM var (first column): −14.993 | YFP fluorescence quenching using Varenicline, 30 nM var (second column): −12.182 | YFP fluorescence quenching using Varenicline, 300 nM var (first column): −11.731 | YFP fluorescence quenching using Varenicline, 300 nM var (second column): −10.13 | YFP fluorescence quenching using Varenicline, 500 nM var (first column): −12.518 | YFP fluorescence quenching using Varenicline, 500 nM var (second column): −15.043 | YFP fluorescence quenching using Varenicline, 1 uM var (first column): −13.385 | YFP fluorescence quenching using Varenicline, 1 uM var (second column): −17.022
